The values below come from PMC4586043.

The target of assay [1] is His-tagged BG505 SOSIP.664 trimer produced in 293S cells, EndoH-deglycosylated (HIV-1 isolate BG505). As to the kind of experiment: SPR; Biacore 3000, 25 °C, HBS-EP; His-tagged trimer captured by anti-histidine antibody on CM5 to 500 RU; 3BC315 IgG or Fab titrated down in twofold steps from 1 μM; IgG fitted with a bivalent, Fab with a Langmuir model.
Assay [2] has as its target BG505 SOSIP.664 trimer produced in 293S cells, deglycosylated by EndoH (HIV-1 isolate BG505). As to the kind of experiment: ITC; Auto-iTC200; trimer in the cell at 4.0–5.0 μM, 3BC315 Fab in the syringe at ~20 × the molar concentration of the trimer; single-site binding model.
Assay [3] deals with BG505 SOSIP.664 trimer produced in 293S cells (HIV-1 isolate BG505). As to the kind of experiment: ITC.
Assay [4] deals with His-tagged BG505 SOSIP.664 trimer produced in 293T cells (HIV-1 isolate BG505). Put plainly: SPR. Also on record: kon1: unit not given here.
For assay [5], the target named is 2G12. Put plainly: ELISA. The settings on record: read at the highest antibody concentration, 1 µg/ml 2G12, read off a plot. In general terms: In an ELISA, binding on a coated surface is turned into a signal by an enzyme label.
The target in assay [6] is 3BC315 Fab. Put plainly: ELISA. Particulars: read off a plot.
For assay [7], the target named is PGT145. As to the kind of experiment: ELISA. The settings on record: read at the highest antibody concentration, about 15 µg/ml PGT145; parent: est. 0.87; read off a plot.
Assay [8] has as its target 3BC176 IgG. Put plainly: ELISA. The settings on record: parent: est. 0.92; read off a plot.
Assay [9] concerns the target BG505 Env on virus (HIV-1 isolate BG505).
In assay [10] the target is JR-FL Env on virus (HIV-1 isolate JR-FL) (UniProt Q75760).

Some results are limits rather than exact numbers.

For the molecule 3BC315 Fab, in assay [1], the Kd turned out to be 7.1 nM, the koff turned out to be 0.00059 s⁻¹ and the stoichiometry N is 1.9. Moreover, in assay [2], the Kd is 167 nM and the stoichiometry N stood at 1.71. Also, in assay [3], the Kd is 186 nM and the stoichiometry N came to 1.17.
In [4], 3BC315 IgG (antibody) returned a Kd1 of less than 10 nM, a Kd2 of 24 RU, a koff1 of less than 1e-05 s⁻¹ and a koff2 of 0.0084 s⁻¹. In [4], this molecule returned a kon1 of 4900, a kon2 of 0.00034 RUs^−1 and a stoichiometry N of 1.1.
In the case of “D7324-tagged BG505 SOSIP.664 trimer produced in 293T cells N88Q”, the response was 1 OD450 in [5] (parent: est. 1.2) and 0.98 OD450 in assay [6].
Consider “D7324-tagged BG505 SOSIP.664 trimer produced in 293T cells N625Q; N637Q”, for which the response in assay [6] (read at the highest concentration, 10 µg/ml 3BC315 Fab, parent: est. 1.1) was determined as 0.93 OD450.
As for “D7324-tagged BG505 SOSIP.664 trimer produced in 293T cells W623A”, the response in [7] was determined as 0.83 OD450; in assay [8], 0.4 OD450; in assay [5] (parent: est. 1.25), 1.2 OD450.

B1: 3BC315 IgG (antibody, V domains shown)
VH: QVQLVQSGAEMKDPGASVKVSCRASGYKFTDYYMHWVRQAPGQGLEWVGWVNTNGGFTKYGAKFQGRVTVTRDTSTNTVFLELSRLTFGDTAMYFCARPMRPVSHGIDYSGLFVFQFWGRGTMVTVSS
VL: QSALTQPASVSASPGQSITISCSGTRSDVGGYDFVSWYQQHPGKVPKLIIYEVTKRPSGIPQRFSGSKSGNTASLTISGLQADDEADYYCCSYANYDKLILGGGTKLTVL
Molecule B1 had an IC50 of neutralisation of BG505 virus (TZM-bl) after 1, 3, 6 and 22 h pre-incubation with IgG (1.62 falling to 0.41) in assay [9] of 1.62 µg/mL. In [10], this molecule had an IC50 of neutralisation of JR-FL virus (TZM-bl) after 1, 3, 6 and 22 h pre-incubation with IgG (5.84 falling to 0.83) of 5.84 µg/mL.

B2: 3BC176 IgG (antibody, V domains shown)
VH: QVQLMQSGAQLRDPGDSLKISCKASGYNFIDYHIHWVRLAPGRGLEWMGWIDPVGGITKYAGQFQGRLSLTRDTSTNTLFLELSRLTAGDTAVYFCARSMRPVDHGIDYSGLFVFHFWGRGSDVLVSS
VL: QSVLTQPASVSASPGQSITVSCTGSRNDVGGYDFVSWYQRHPGGVPKLIIYEISKRPSGIPQRFSGSRSGNTASLTISGLQDDDEADYYCCSYASYDRLIFGGGTRVSVL
As to B2, in assay [9], the IC50 of neutralisation of BG505 virus (TZM-bl) after 1, 3, 6 and 22 h pre-incubation with IgG (1.93 falling to 0.33) turned out to be 1.93 µg/mL. The IC50 of neutralisation of JR-FL virus (TZM-bl) after 1, 3, 6 and 22 h pre-incubation with IgG (0.30 falling to 0.03) in assay [10] is 0.3 µg/mL.

For orientation: koff means a measure of how fast the partners let go of each other. The stoichiometry N is the number of molecules, sites or subunits per partner or assembly.
